Data taken from paper doi:10.1101/2022.05.12.491617.

Tests used:
[1] = biological target: Drosophila melanogaster KCC variant B (Drosophila melanogaster); assay: SEC
[2] = biological target: Hydra vulgaris KCC (Hydra vulgaris); assay: SEC-MALLS
[3] = biological target: Hydra vulgaris KCC (Hydra vulgaris); assay: SEC

| stoichiometry N [1] | stoichiometry N [2] | stoichiometry N [3] | Substance |
| --- | --- | --- | --- |
| 2 |  |  | Drosophila melanogaster KCC variant B (natural protein) |
|  | 2 | 2 | Hydra vulgaris KCC (natural protein) |
